Assay results taken from a protein production outcome set (Wang et al. 2014).

Assay: label from the status in PepcDB records

Sequence: MSDFSNELHTQIQYSLIEKLSESERRYRELVDSLREIVFKCDRLGNLNFLNRAWTNTLGYGITDAIGSALSNFIDLDDQYLWSETLEKLQTGVEVCQKLRFYHQTGAIVWLELSAQPQSETEFSGSLINITDVYDELRLRKHAEGLLKQTNEELEARVEQRNIELIQANHDLKVTLDKLKYTQAQLVQTEKMSSLGQLVAGIAHEINNPVNFI
- protein production: failed

Sequence: MRVLETIVALREYRKSLEESVGFVPTMGALHKGHQSLIERSLKENSHTIVSVFVNPTQFGANEDFNAYPRPLEKDLALCEKLGVNAVFVPKIGEMYPYEAEQRLKLYAPKFLSSSLEGAMRKGHFDGVVQIVLKMFHLVNPTRAYFGKKDAQQLLIIEHLVKDLLLDIEIAPCEIVRDDDNLALSSRNVYLNATQRKQALAIPKALEKIQQAIDKGEKACEKLKKLGLEILETLEVDYLECCNHKLEPLTIIEPTNTLILVAARVGKTRLLDNLWV
- protein production: failed

Sequence: MKLFKRISFILIVLYILIVPVQHVSAHAYLENSNPADQSHIKTAPEKVTLVFNEEIEADFPLIEVKDSSGKRVETGKTSVSKKNNHMVEASLPAELKADVYSVSWRVVSADGHAVTGIISFKLGDTKATFQESEVPSSGADLQISSIQKAILYIGFSLFIGVLVFGLGLYPRKEQISEKISGRLKKVTWIALALLGVALFMQLFVQTSITTGVSISESFGPSKLAAFLTTKTGYIWISEFIVWLLLAIFTIMMFFKNKQWSWFALLTESALIGYLIFAKAQNGHAAASADKIVSITADMLHMIAASVWVGGILVLLFVLPKTGKAREIWSRFAIVAIIAVASILVSGLLMAVMNIGQMSNLFTTNYGKILLFKIGLFLLMALLGLGHYIYLKLKNKKLPFKTILIELIIGTIILIVASVLTNVQTPPPPAPKAFDETIAAKGENAKINLRVEPATVGQNQFIITFTSADGATKTDFEQVTITTKSTKTDEKATFQAKLANENQYFAEGLYINQTGKWEITVHGLTKDFTDINQTFTTNITQ
- protein production: failed

Sequence: MAVALLGNRDGQAFLATLFDLARRGHVTLRHDREDQAFGTTDVVRLETHPAPNDLSDFERRLVDTLGEYETLDDFWSDTRSFRSDVMSDVRGVLFERGWMENHTVRSGLLLGGALVALLGGFAAVVTGDSALRFYLLFGGMGVSLGGFIAAVRQYTWTEDGARRAMALRAYLDHEKSEIERLRETSPARAAERLVDALPWLLLHDEVSRAWIEETKEALDAADEVPELPDGFVSLVETEGSARAPVAAFLPVVTVMGAVESSSAGAVGAAGASGAAGAAGGGAGAAGAA
- protein production: failed

Sequence: MTQTVKLDILSDPICPWCYIGKTQLDKALAAIPDHPFVIEWHPFQLNPDMAPEGMDRREYLERKFGGKEGAVRAYAPVVEHAEKAGLAIDFEAMQRTPNTLDAHRLIHWAGVEGKQTEAVDALFAAYFTEGRDIGDAEVLADIADSIGMDAAVVLKLLKSDADRDDIAKRDSHSREMGVSSVPTFIVANQHAVPGAQPPELWEQVIREIMSQIETTSA
- protein production: not failed

Sequence: MKGYGEMAKNNPTRITAEPGKQEIIITREFDAPRELVFKAFTDPDLYTQWIGPRGFTTALKIFEPKNGGSWQYIQKDPEGNEYAFHGVNHDVTEPERIISTFEFEGLPEKGHVILDTARFEALPGDRTKLTSHSVFQTIEDRDGMLQSGMEEGINDSYERLDELLEKMKKLEHHHHHH
- protein production: not failed

Sequence: MKIIENYKGLPKSIYFLFLVQVINRLGDFVFPFLSLLLTQKLKFSMATTGTIVMIASVVGVPASFIGGKIADKSSRKLTYILGQSFAAIVILICGFINIPNLTVALLIASSFFNGFVRPTISAMVADLLPASKRQMGSSLLYLGINFGVAVGPIIAGFLFNNYLSLLFIIDALTSFIAVIIVLILIPDTKAVKHVGEDRIEEKEEKGNLLQILLKRPFVICFFGVDMIYSLAYRQCSFSMPIMMNKVFGYSGSSKYGFLMSVNALTVVALTIFVMHVTKRFRTLTNMAFSGLFYAVGFGMISIIGNSYLLFIISTVIWTMGEILGATNFGVYLANNSPRNCRARFGAVGELISSIGGAIGIFGAGKLIESYGINMIWRVIFIIVLLGAGLMLTLQYFQTKRVEQKIAHEI
- protein production: failed

Sequence: MEMIGGDDTDTEMYGALVTAQSLRLRHLHHCRENQCTSVLVKYIQAPVHLVWSLVRRFDQPQKYKPFISRCTVNGDPEIGCLREVNVKSGLPATTSTERLEQLDDEEHILGINIIGGDHRLKNYSSILTVHPEMIDGRSGTMVMESFVVDVPQGNTKDDTCYFVESLIKCNLKSLACVSERLAAQDITNSIATFCNASNGYREKNHTETNL
- protein production: failed

Sequence: MMKEFTPAPDSASIVSVTDRVKPVALGMGVTSVHFLGDRAAFVGGEENVAFVDSQGEITTVAVHGGGILSTASDGKRLVMGGDDGKVVSLDAKGEVTLLATDPKRRWIDAVALHADGAFAWSAGKTATVKSGKTEEKSLEVPSTVGGLAFAPKGLRLAIAHYNGATLWFPNMAASAEFLPWAGSHHAVTFSPDNKFLVTAMHEPALHGWRLADNRHMRMTGYPGRVRSMSWSAGGKALATSGADTVILWPFGSKDGPMGKEPAMLAPLQARVSVVACHPKNDILAAGYSDGTVLMVRLEDGAEILVRRNGTPPVAALAWNAKGTLLAFADENGDGGLLELLEHHHHHH
- protein production: not failed

Sequence: MNPSHGRGLGSAGGSSSGRNQGGGGETVVEMFPSGLRVLVVDDDPTCLMILERMLRTCLYEVTKCNRAEMALSLLRKNKHGFDIVISDVHMPDMD
- protein production: failed

Sequence: TDQAITFDDVLLVPSYNHHESRRVVETTSTDRLGKLTLNLPVISANMDTITESNMANFMHSKGAMGALHRFMTIEENIQEFKKCKGPVFVSVGCTENELQRAEALRDAGADFFCVDVAHAHAKYVGKTLKSLRQLLGSRCIMAGNVATYAGADYLASCGADIIKAGIGGGSVCSTRIKTGFGVPMLTCIQDCSRADRSIVADGGIKTSGDIVKALAFGADFVMIGGMLAGSAPTPGEVFQKDDGSKVKRYRGMASREAQEAFLGQMHEWKTAEGVATEVPFKENPDGIIADIIGGLRSGLTYAGADSISELQRKLNYVIVTQAGRIESLPHKLLEG
- protein production: not failed

Sequence: MKSTAEYLEDPEQAADRALSLLQDLGGLSAAAAWGRSGVMWRRLAGFGDLAGLPDGAALAAGERPPAGGAMAMRAGDGALGWLAWQGKPPGQMETVAELLAGHLQCEALRAEQAATRVANETMLEISLLAGECPTLDRLLPRLHRLMQRLMDADNFYIALCGDDRSTLSFPFYADRREASPPDPERAFPIAGPDVSLTAWLIRGGAPMVLTGERIEALCRQEALARPANLPAFWMGAPLRNAADELIGAAVLQRYDDQPPLTSAEQLLFMFAARHVGFALDRVLYHRRLERQVALRTSELEGANARLRAEVASRKRAEKFQDVLFRIAELSNTSLSLEAFLSGLHRLLLEMVAARNCVVALYDMGSDLISFPYCADEYAPALKPRKPGKGLIEQVLHSGRPLLLDPYGSLQGMAAAEGATPPKSWLGVPLYCDHELLGVLAVQSYDGDVVYGYRDQEVLEFVANHIGTALARVRALESLQHAYADLEQRVRERTSELDAVNAQLEFDSLHDPLTKLPNRNYFSKALRRAWDAYLDGGDRFAVVFIDLDRFKLVNDTLGHLAGDHLLFEAGARIRSCLRHYDFLARLGGDEFAVLMFGMDAVDECEVIARRIVSEFERPVVLAGREVFSTASVGVVLADSEHYHKADDLLRDADHAMYCTKQQGRQGYTLFSHQLRIDQADQLALETELRRALEEEGQLVPYYQPFIAAATGALAGFETLVRWQHPQRGLVSPGVFLPVAEESGLITRLDRYMINAACAQLQAWRAEGRVGEGIALHINLSSANFRDPDLVGWIGERIAHYRLPPAMLHLEITESALIDQPEAAATAMQALHGLGVRLALDDFGTGYSALSYLHRYRFDVLKIDQSFVFDLDRKQESVAIVRAILALARALDLEVVAEGVETASQSAMLKEMGCGMLQGFHFAAPAPAWALDWDKLARFAEGPGRVA
- protein production: failed

Sequence: MGHHHHHHSHMSRVPPTVTNAVSWRSEGIKYKKNEVFIDVIESVNLLVNANGSVLLSEIVGTIKLKVFLSGMPELRLGLNDRVLFELTGRSKNKSVELEDVKFHQCVRLSRFDNDRTISFIPPDGDFELMSYRLSTQVKPLIWIESVIEKFSHSRVEIMVKAKGQFKKQSVANGVEISVPVPSDADSPRFKTSVGSAKYVPERNVVIWSIKSFPGGKEYLMRAHFGLPSVEKEEVEGRPPIGVKFEIPYFTVSGIQVRYMKIIEKSGYQALPWVRYITQSGDYQLRTS
- protein production: failed

Sequence: MKLLVVDDSSTMRRIIKNTLSRLGYEDVLEAEHGVEAWEKLDANADTKVLITDWNMPEMNGLDLVKKVRSDSRFKEIPIIMITTEGGKAEVITALKAGVNNYIVKPFTPQVLKEKLEVVLGTND
- protein production: failed
